Reference: patent US20030125257

Biological target: 19 peptidomimetic BACE inhibitors

B1: purified full-length human BACE with six C-terminal His residues, expressed in Sf9 insect cells (protein)
chain: ETDEEPEEPGRRGSFVEMVDNLRGKSGQGYYVEMTVGSPPQTLNILVDTGSSNFAVGAAPHPFLHRYYQRQLSSTYRDLRKGVYVPYTQGKWEGELGTDLVSIPHGPNVTVRANIAAITESDKFFINGSNWEGILGLAYAEIARPDDSLEPFFDSLVKQTHVPNLFSLQLCGAGFPLNQSEVLASVGGSMIIGGIDHSLYTGSLWYTPIRREWYYEVIIVRVEINGQDLKMDCKEYNYDKSIVDSGTTNLRLPKKVFEAAVKSIKAASSTEKFPDGFWLGEQLVCWQAGTTPWNIFPVISLYLMGEVTNQSFRITILPQQYLRPVEDVATSQDDCYKFAISQSSTGTVMGAVIMEGFYVVFDRARKRIGFAVSACHVHDEFRTAAVEGPFVTLDMEDCGYNIPQTDESTLMTIAYVMAAICALFMLPLCLMVCQWRCLRCLRQQHDDFADDISLLKHHHHHH
FRET assay (proteolytic activity of beta-secretase): test compounds inhibiting the binding of a tagged beta-secretase to beta-secretase also inhibit the proteolytic activity of beta-secretase leading to production of A-beta over a broad range of IC-50 values
